Source: the supplement of paper PMC10724198
± gives the standard deviation of the averaged measurements.

tested on: Saccharomyces cerevisiae; experiment: protein stability index of tFT-peptide fusion (C-terminal peptide) (PSI (0-1 scale)); higher = more stable (slower turnover); details: genetic background: wild type; temperature: 30 C
Method: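 Multiplexed protein stability (MPS) profiling in S. cerevisiae. Random 12-aa peptides (tFT-X12 library) are fused to the C-terminus of a sfGFP-mCherry tandem fluorescent timer, after mCherry and a GGGS linker. Cells are FACS-sorted into 8 mCherry/sfGFP bins and deep-sequenced. The protein stability index (PSI) is the read-weighted bin average, scaled from 0 (unstable) to 1 (stable). Only peptides with >10 reads are reported; cells were grown at 30 °C in SC-His with glucose.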
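Note: PSI is a weighted mean of sequencing reads over stability bins, variants kept only with over 10 reads, mCherry proximal and sfGFP distal, peptide attached via GGGS linker.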

In order of rising protein stability index:
1. DMVSLGLAILIT  0.492 ± 0.021
2. DMWSMFSFLYYV  0.507 ± 0.012
3. DTVYSRAIAANA  0.545 ± 0.012
4. DLSMIPEWICIV  0.547 ± 0.054
5. DSIVWVGVTYFL  0.553 ± 0.012
6. DFSLQILALCYF  0.558 ± 0.018
7. EGGGASELGAPN  0.567 ± 0.095
8. EFALVFVRARRA  0.586 ± 0.047
9. DFVRVVGDLRWE  0.587 ± 0.041
10. EGRKTLWEGNRG  0.609 ± 0.059
11. DIRRWQWWFMVR  0.613 ± 0.082
12. DRPNIGIKPKRA  0.613 ± 0.086
13. EGGIYLQMCVGS  0.616 ± 0.035
14. DLGARWLFLLQT  0.622 ± 0.012
15. DSPLSHPPSPAP  0.6235 ± 0.0019
16. DTTSSPPLPLLV  0.623 ± 0.035
17. DVLGCFDYLLFR  0.623 ± 0.03
18. DVLASSSVWFLI  0.624 ± 0.0057
19. EFANKGIKINTA  0.625 ± 0.019
20. DGYYRIVRPEAI  0.626 ± 0.018
21. DVPKSGLEVWRR  0.627 ± 0.067
22. DYLVRGPPRASG  0.629 ± 0.021
23. DNKEIEQTIRNK  0.6304 ± 0.0041
24. DPTPLALSPDHP  0.63 ± 0.057
25. EESNEERDQEKT  0.63 ± 0.0065
26. DVLRLRSVFFCG  0.631 ± 0.047
27. EKERKIKEREVT  0.631 ± 0.018
28. EGGCCRMVGVVK  0.633 ± 0.0024
29. DLERRKGTGVWR  0.6366 ± 0.0051
30. ECFVCGGGILGG  0.637 ± 0.09
31. DSTWGLGLFSVP  0.64 ± 0.033
32. EEWRRRSTKERR  0.641 ± 0.013
33. EKKYKKKYKKKE  0.641 ± 0.031
34. DRRTLSLDLCGS  0.644 ± 0.045
35. EGLNASGGGSGG  0.644 ± 0.07
36. DSRRDYLHLVFT  0.646 ± 0.023
37. DSSLDWGREARA  0.649 ± 0.075
38. EGGTGNHSVSNQ  0.654 ± 0.022
39. DLPVPRPGTLQV  0.655 ± 0.045
40. EARLGGESSAWG  0.655 ± 0.053
41. DRSTIKIAIHRQ  0.656 ± 0.056
42. EGRRGVGGAWEG  0.6573 ± 0.0037
43. DRPYPTTFRSSR  0.66 ± 0.017
44. EGRDDIVEKKRR  0.66 ± 0.063
45. DPQQRSNPKPII  0.661 ± 0.032
46. DGGIVTVSLGWC  0.662 ± 0.064
47. DINHTSKKKIYI  0.663 ± 0.015
48. DPPPPSPPASMP  0.663 ± 0.036
49. EAIMNSLLFAVD  0.664 ± 0.0088
50. EGSSVITFAGGG  0.664 ± 0.046
51. DGTRVSFLGHKG  0.665 ± 0.053
52. EKIKKQITRTRR  0.6652 ± 0.0053
53. EKNDKEYKRSIS  0.665 ± 0.06
54. DRSMRPISKRWE  0.668 ± 0.037
55. EIRKGGVRSTSN  0.668 ± 0.13
56. EDMRGATGRGAG  0.669 ± 0.028
57. EFLGTVRSVWRK  0.669 ± 0.086
58. EGREGQRHRRVI  0.669 ± 0.01
59. EEEGRRREEETS  0.67 ± 0.041
60. EGLVRVCSRHYR  0.67 ± 0.0083
61. EIERTKNEGEEG  0.67 ± 0.058
62. EKNKRMEVKAKR  0.67 ± 0.0096
63. EGSSGVLESRAG  0.671 ± 0.026
64. EHERQQYKNYNK  0.671 ± 0.057
65. DSVRRMAEGKRE  0.672 ± 0.029
66. DVQISSGRGVCS  0.672 ± 0.054
67. EAKRSRCESAEI  0.672 ± 0.01
68. DGSPLGSIQQAP  0.673 ± 0.013
69. DVAWHNYRISGK  0.673 ± 0.015
70. EGEERGEGQVRA  0.675 ± 0.0068
71. DHSWPSTDRVLL  0.676 ± 0.0096
72. DPRRNGAPLRSI  0.676 ± 0.039
73. DVILVSLPPPSV  0.676 ± 0.049
74. DLLWASLCLRSY  0.679 ± 0.021
75. DSSFPKSVSKQA  0.679 ± 0.024
76. EAAVTESVTGKR  0.679 ± 0.0088
77. DIISSKENWVEI  0.68 ± 0.059
78. EDCTKNPERDNS  0.68 ± 0.048
79. EEGARAAGGEPQ  0.68 ± 0.036
80. EFSWGGLAGSFG  0.68 ± 0.024
81. DRVRGLCIPNGP  0.681 ± 0.043
82. EKIVHEGAHGWR  0.681 ± 0.02
83. EGNPPTRPRSLG  0.682 ± 0.052
84. DLPVIGHRLPLF  0.684 ± 0.012
85. DRLTLEKKGRGM  0.684 ± 0.016
86. DRVHVSNGYLEF  0.684 ± 0.1
87. DKNVREGDRETR  0.685 ± 0.017
88. DHPFFCWDGVVK  0.687 ± 0.069
89. DKCRWWRHGVWR  0.687 ± 0.019
90. DVGSRGPPHTDG  0.687 ± 0.074
91. EGLPGGLRGCLR  0.687 ± 0.021
92. DVRNDSSLIIQI  0.688 ± 0.053
93. EKGSKTGNKPQT  0.688 ± 0.048
94. EKMILEIKRGRI  0.688 ± 0.036
95. ECGLGGGGGLGV  0.689 ± 0.077
96. DPYYGFRMRIPF  0.691 ± 0.026
97. DGKNQGKAEGTK  0.693 ± 0.041
98. DTSPSPPPLSVL  0.693 ± 0.017
99. DWFGGSVRVDEN  0.693 ± 0.055
100. DYNQWSAHHYGV  0.693 ± 0.029
101. ECSPRQVPSLAE  0.694 ± 0.028
102. EGDGQGGGGQGG  0.695 ± 0.011
103. DSLSVSLSLVRG  0.696 ± 0.028
104. EFLVSVRPFASP  0.696 ± 0.032
105. DYRLWFRGLPSL  0.697 ± 0.035
106. DQVSGYNVWFGT  0.698 ± 0.028
107. DLPATSAETAPK  0.699 ± 0.058
108. EDTMGKTASHTR  0.699 ± 0.019
109. DRSTGVNKSFPS  0.7 ± 0.074
110. EFTGVYLWERGW  0.7 ± 0.041
111. EKQKNLPQEAKQ  0.7 ± 0.02
112. DGAVCSAFASIF  0.701 ± 0.0089
113. DHVSTVEQKLFF  0.701 ± 0.031
114. DLPRCTLSVEDT  0.703 ± 0.0078
115. EGREGVFGEGRA  0.703 ± 0.031
116. EKCIGKRGLTKY  0.703 ± 0.022
117. DWWFGQVYLSKE  0.705 ± 0.011
118. DSVVGFCGYWGG  0.706 ± 0.088
119. DVDYGEIDYQIK  0.708 ± 0.011
120. DWGAGAASRADR  0.708 ± 0.015
121. EEREGPVGKGGG  0.708 ± 0.044
122. EKKKKRNKVNQN  0.709 ± 0.064
123. DINNDQKCTLMK  0.71 ± 0.013
124. DVRMGCVGVSNI  0.71 ± 0.0088
125. EIVTQQKIMDKK  0.711 ± 0.012
126. EGGGGKGRKRRA  0.712 ± 0.022
127. DSPPHPPPASAP  0.714 ± 0.017
128. DSSEGRVRIRIR  0.714 ± 0.063
129. DWHLLVRRPFSR  0.714 ± 0.042
130. DKDSTSRYSKPW  0.725 ± 0.022
131. DGGGGGRAPRVR  0.726 ± 0.1
132. EAYRVTYPYMYP  0.726 ± 0.0086
133. ECVPEVACCPWR  0.729 ± 0.03
134. DSWGPGVSSRRW  0.732 ± 0.044
135. DRAPPPPRSSPL  0.733 ± 0.076
136. DKGIHKREKFFT  0.734 ± 0.0054
137. DRLGADCPLLSG  0.734 ± 0.028
138. EKPKEGKNETKK  0.734 ± 0.042
139. DKRHQSALSFFI  0.736 ± 0.0089
140. EEVKKRTLKVID  0.738 ± 0.021
141. EFPSFHDQGAYM  0.738 ± 0.062
142. EKNTNVDHNRNF  0.7384 ± 0.0061
143. DKFEEENIKKKK  0.74 ± 0.026
144. DTRNKHTKSKCQ  0.741 ± 0.051
145. EGTSYWDPSVPG  0.741 ± 0.045
146. EGGVGGRAPRVR  0.747 ± 0.098
147. DLRFLQFGFIPW  0.752 ± 0.043
148. DPGKWMRCHICE  0.752 ± 0.035
149. DVSIFTNELGFY  0.763 ± 0.01
150. DKYFRYKEERTY  0.766 ± 0.16
151. EGITFGNDECWC  0.782 ± 0.095
152. DMHTPATDSPLP  0.783 ± 0.016
153. EAVNLDSWAAGQ  0.828 ± 0.058
154. DLSSFGRLGCQG  0.871 ± 0.037
155. DWWLPLFDWAKL  0.872 ± 0.025
